Laboratory results from patent US20160038588A1, “Myostatin Antagonism in Human Subjects” (AMGEN INC., priority 2013, published 2016).
Where no end group is shown, it is not given here.

What was measured:
myostatin [1] = molecular target: T1, myostatin (Homo sapiens, UniProt O14793); test: C2C12 pMARE-luc cell based myostatin activity assay
T1 construct: To produce mature myostatin, the pooled promyostatin was enzymatically cleaved between the propeptide and mature myostatin C terminal; made in house
T1 sequence (O14793 267-375): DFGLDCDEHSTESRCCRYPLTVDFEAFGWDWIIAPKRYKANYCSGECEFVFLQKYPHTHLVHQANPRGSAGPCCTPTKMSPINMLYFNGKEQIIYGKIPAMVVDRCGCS
Text: The antagonists including the binding agents described herein can be tested for their ability to bind myostatin and inhibit or block myostatin activity. Any number of assays or animal tests may be used to determine the ability of the agent to inhibit or block myostatin activity. Several assays used for characterizing the peptides and peptibodies of the present invention are described in the Examples below. One assay is the C2C12 pMARE-luc assay which makes use of a myostatin-responsive cell line (C2C12 myoblasts) transfected with a luciferase reporter vector containing myostatin/activin response elements (MARE). Exemplary peptibodies are assayed by pre-incubating a series of peptibody dilutions with myostatin, and then exposing the cells to the incubation mixture. The resulting luciferase activity is determined, and a titration curve is generated from the series of peptibody dilutions. The IC50 (the concentration of peptibody to achieve 50% inhibition of myostatin activity as measured by luciferase activity) was then determined. A second assay described below is a BIAcore® assay to determine the kinetic parameters ka (association rate constant), kd (dissociation rate constant), and KD (dissociation equilibrium constant) for the myostatin binding agents and other antagonists such as antibodies capable of binding myostatin and its receptor. Lower dissociation equilibrium constants (KD, expressed in nM) indicated a greater affinity of the peptibody for myostatin. […] These assays are described in Example 3.
C2C12 Cell Based Myostatin Activity Assay
A myostatin-responsive reporter cell line was generated by transfection of C2C12 myoblast cells (ATCC No: CRL-1772) with a pMARE-luc construct. The pMARE-luc construct was made by cloning twelve repeats of the CAGA sequence, representing the myostatin/activin response elements (Dennler et al. EMBO 17: 3091-3100 (1998)) into a pLuc-MCS reporter vector (Stratagene cat #219087) upstream of the TATA box. The myoblast C2C12 cells naturally express myostatin/activin receptors on its cell surface. When myostatin binds the cell receptors, the Smad pathway is activated, and phosphorylated Smad binds to the response element (Macias-Silva et al. Cell 87:1215 (1996)), resulting in the expression of the luciferase gene. Luciferase activity is then measured using a commercial luciferase reporter assay kit (cat # E4550, Promega, Madison, Wis.) according to manufacturer's protocol. A stable line of C2C12 cells that had been transfected with pMARE-luc (C2C12/pMARE clone #44) was used to measure myostatin activity according to the following procedure.
Equal numbers of the reporter cells (C2C12/pMARE clone #44) were plated into 96 well cultures. A first round screening using two dilutions of peptibodies was performed with the myostatin concentration fixed at 4 nM. Recombinant mature myostatin was preincubated for 2 hours at room temperature with peptibodies at 40 nM and 400 nM respectively. The reporter cell culture was treated with the myostatin with or without peptibodies for six hours. Myostatin activity was measured by determining the luciferase activity in the treated cultures. This assay was used to initially identify peptibody hits that inhibited the myostatin signaling activity in the reporter assay. Subsequently, a nine point titration curve was generated with the myostatin concentration fixed at 4 nM. The myostatin was preincubated with each of the following nine concentrations of peptibodies: […], 0.4 nM, 4 nM, 20 nM, 40 nM, 200 nM, 400 nM, 2 uM and 4 uM for two hours before adding the mixture to the reporter cell culture. The IC50 values were for a number of exemplary peptibodies are provided in Tables III and for affinity matured peptibodies, in Table VIII.

myostatin [2] = molecular target: T1, myostatin; test: BIAcore affinity analysis on immobilized myostatin; format: binding; conditions: Biacore assay
Text: The antagonists including the binding agents described herein can be tested for their ability to bind myostatin and inhibit or block myostatin activity. Any number of assays or animal tests may be used to determine the ability of the agent to inhibit or block myostatin activity. Several assays used for characterizing the peptides and peptibodies of the present invention are described in the Examples below. One assay is the C2C12 pMARE-luc assay which makes use of a myostatin-responsive cell line (C2C12 myoblasts) transfected with a luciferase reporter vector containing myostatin/activin response elements (MARE). Exemplary peptibodies are assayed by pre-incubating a series of peptibody dilutions with myostatin, and then exposing the cells to the incubation mixture. The resulting luciferase activity is determined, and a titration curve is generated from the series of peptibody dilutions. The IC50 (the concentration of peptibody to achieve 50% inhibition of myostatin activity as measured by luciferase activity) was then determined. […]
Direct binding assays were used to screen and rank the peptibodies in order of their ability to bind to immobilized myostatin. […] Peptibody binding kinetic parameters including ka (association rate constant), kd (dissociation rate constant) and KD (dissociation equilibrium constant) were determined using the BIA evaluation 3.1 computer program (Biacore, Inc.). […]

[3] = molecular target: T2, myostatin binding to ActRIIB/Fc (Homo sapiens, UniProt O14793); test: Blocking assay on ActRIIB/Fc surface (BIAcore)
T2 construct: To produce mature myostatin, the pooled promyostatin was enzymatically cleaved between the propeptide and mature myostatin C terminal; host or cells: myostatin: E. coli K-12 strain 2596; ActRIIB/Fc purchased
T2 sequence (O14793 267-375): T1 sequence (O14793 267-375)
Experimental: Blocking Assay on ActRIIB/Fc Surface
Blocking assays were carried out using immobilized ActRIIB/Fc (R&D Systems, Minneapolis, Minn.) and myostatin in the presence and absence of peptibodies with the BIAcore® assay system. […] Baseline myostatin-ActRIIB/Fc binding was first determined in the absence of any peptibody.
For early screening studies, peptibodies were diluted to 4 nM, 40 nM, and 400 nM in sample buffer and incubated with 4 nM myostatin (also diluted in sample buffer). The peptibody:ligand mixtures were allowed to reach equilibrium at room temperature (at least 5 hours) and then were injected over the immobilized ActRIIB/Fc surface for 20 to 30 minutes at a flow rate of 10 μl/min. […] Selected peptibodies were further characterized using the blocking assay of a full concentration series in order to derive IC50 values (for neutralizing peptibodies) or EC50 (for non-neutralizing peptibodies). The peptibody samples were serially diluted from 200 nM to […] in sample buffer and incubated with […] myostatin at room temperature to reach equilibrium (minimum of five hours) before injected over the immobilized ActRIIB/Fc surface for 20 to 30 minutes at a flow rate of 10 μl/min. Following the sample injection, bound ligand was allowed to dissociate from the receptor for 3 minutes.

myostatin [4] = molecular target: T1, myostatin; test: Epitope binning for peptibodies (BIAcore); format: binding
Experimental: Epitope Binning for Peptibodies
A purified peptibody was immobilized on a BIAcore chip to capture myostatin before injection of a second peptibody, and the amount of secondary peptibody bound to the captured myostatin was determined Only peptibodies with distinct epitopes will bind to the captured myostatin, thus enabling the binning of peptibodies with similar or distinct epitope binding properties.

inhibition of myostatin activity in cell-based assay (myostatin [1]): inhibit myostatin activity
IC50 (myostatin [1]; pMARE luc cell-based assay, myostatin 4 nM): ~23 nM
Kd (myostatin [2]): ~2 nM
blocking of myostatin/ActRIIB/Fc interactions [3]: does not block
epitope on myostatin (binning) (myostatin [4]): bind to different epitopes
Substance: TN8-19: peptibody; peptide QGHCTRWPWMCPPY (cysteine pairing not given here; also: Fc fusion peptibody)
IC50 of peptibody compared with peptide (FIG. 1) (myostatin [1]; C2C12 based assay): significantly less than that of the peptide
